{"source": "paper doi:10.1101/2020.06.10.144725", "about": "(bioRxiv, 2020)", "key": {"[1]": {"molecular_target": "Lip-NKD-HisC (lipoyl domain-tagged HisC of NKD1) (human (identical sequence in mouse and human)) (UniProt Q969G9)", "sequence (Q969G9 whole entry, the tested form may be a part)": "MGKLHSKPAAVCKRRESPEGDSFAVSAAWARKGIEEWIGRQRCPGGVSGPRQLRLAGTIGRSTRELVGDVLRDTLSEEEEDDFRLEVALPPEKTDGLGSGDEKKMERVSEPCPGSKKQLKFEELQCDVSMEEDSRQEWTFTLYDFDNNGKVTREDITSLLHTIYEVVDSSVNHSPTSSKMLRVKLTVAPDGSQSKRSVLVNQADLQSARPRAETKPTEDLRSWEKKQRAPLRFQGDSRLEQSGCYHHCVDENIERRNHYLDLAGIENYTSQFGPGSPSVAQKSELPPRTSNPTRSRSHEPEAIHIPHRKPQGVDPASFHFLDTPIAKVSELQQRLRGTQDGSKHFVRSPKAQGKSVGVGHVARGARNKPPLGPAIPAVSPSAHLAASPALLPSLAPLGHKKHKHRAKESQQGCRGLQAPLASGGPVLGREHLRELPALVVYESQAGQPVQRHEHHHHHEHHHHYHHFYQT", "test": "co-aggregation assay"}, "[2]": {"molecular_target": "Lip-NKD-HisC (lipoyl domain-tagged HisC of NKD1) (human (identical sequence in mouse and human)) (UniProt Q969G9)", "test": "SEC"}, "SEC-MALS": {"molecular_target": "the molecule itself", "test": "SEC-MALS"}, "Lip-DVL2-PDZ": {"molecular_target": "T1, Lip-DVL2-PDZ (human, UniProt O14641 285-373)", "T1 sequence": "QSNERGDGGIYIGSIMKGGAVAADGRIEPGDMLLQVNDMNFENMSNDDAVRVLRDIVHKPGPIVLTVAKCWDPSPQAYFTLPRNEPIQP", "test": "ITC"}}, "data": [{"molecule": "MBP-Axin2-HisC (domain or fragment)", "values": [{"measurement": "molecules per core (molecules per core)", "setting": "[1]", "value": "< 4"}]}, {"molecule": "MBP-Axin1-HisC (from UniProt O15169 1-862) (domain or fragment)", "values": [{"measurement": "molecules per core (molecules per core)", "setting": "[1]", "value": "< 5"}]}, {"molecule": "Lip-NKD-HisC (lipoyl domain-tagged HisC of NKD1) (from UniProt Q969G9 1-470) (domain or fragment)", "values": [{"measurement": "stoichiometry N", "setting": "[2]", "value": "15 to 25"}]}, {"molecule": "MBP-NKD-HisC (maltose-binding protein-tagged HisC of NKD1) (from UniProt Q969G9 1-470) (domain or fragment)", "values": [{"measurement": "stoichiometry N", "setting": "[1]", "value": 10}]}, {"molecule": "RFP-NKD1-EF (domain or fragment) EPCPGSKKQLKFEELQCDVSMEEDSRQEWTFTLYDFDNNGKVTREDITSLLHTIYEVVDSSVNHSPTSSKMLRVKLTVAPD", "values": [{"measurement": "stoichiometry N", "setting": "SEC-MALS", "value": 2}, {"measurement": "Kd", "setting": "Lip-DVL2-PDZ", "value": "3.2 ± 0.2", "unit": "µM"}]}]}
